Measurements reported in patent US20230329245A1, “COMPOSITIONS AND METHODS OF USE THEREOF” (Curie Co. Inc., priority 2020, published 2023).

Experiment: Colorimetric hydroxamate Tgase activity assay
Type: biochemical
Conditions: zymogen purified on Ni-IMAC resin and desalted
Experimental: The cells were lysed using a high-pressure homogenizer at pressures from 15000-20000 psi. The crude lysates were clarified through centrifugation at 15000×g for up to 60 minutes. The clarified lysate containing pro-Tgase SEQ ID NO:3 was evaluated by sodium dodecyl sulfate polyacrylamide gel electrophoresis (SDS-PAGE) and spectroscopy (A280 nm). The clarified lysate was further purified by affinity column on a Ni-IMAC resin and desalted.

B1: Pro-Tgase SEQ ID NO:3: variant of Streptomyces mobaraensis Tgase zymogen form (pro-Tgase), SEQ ID NO:3 (protein)
chain: MDNGAGEETKSYAETYRLTADDVANINALNESAPAASSAGPSFRAPDPDDRVTPPAEPLDRMPDPYRPSYGRAETVVNNYIRKWQQVYSHRDGRKQQMTEEQREWLSYGCVGVTWVNSGQYPTNRLAFASFDEDRFKNELKNGRPRSGETRAEFEGRVAKESFDEEKGFQRAREVASVMNRALENAHDESAYLDNLKKELANGNDALRNEDARSPFYSALRNTPSFKERNGGNHDPSRMKAVIYSKHFWSGQDRSSSADKRKYGDPDAFRPAPGTGLVDMSRDRNIPRSPTSPGEGFVNFDYGWFGAQTEADADKTVWTHGNHYHAPNGSLGAMHVYESKFRNWSEGYSDFDRGAYVITFIPKSWNTAPDKVKQGWPLEHHHHHH
  Tgase activity (colorimetric hydroxamate activity assay): little to no activity
